Measured values published in article doi:10.1101/2025.01.28.635075.
Where “and” joins values, the source holds several entries; their conditions need not be identical. Identical values can stand only once.

Tests used:
[1] = target: MMOH protomer (αβγ) from Methylosinus sporium 5 (Methylosinus sporium 5); assay: cryo-EM structure
[2] = target: soluble methane monooxygenase hydroxylase (MMOH), α2β2γ2, from Methylosinus sporium 5 (Methylosinus sporium 5); assay: cryo-EM structure

Row | stoichiometry N [1] | stoichiometry N [2] | Substance
1 | 2 | – | MMOH protomer (αβγ) from Methylosinus sporium 5 (from UniProt A0ACH3GMT4 1-520) (complex)
2 | – | 1 and 2 | regulatory component of soluble methane monooxygenase (MMOB) from Methylosinus sporium 5 (natural protein)
